{"source": "patent US10428308B2", "about": "“Mesoderm and definitive endoderm cell populations” (Icahn School of Medicine at Mount Sinai, priority 2005, dated 2019)", "molecules": {"B1": {"name": "activin: growth factor purchased from R&D systems; induces mesoderm and endoderm (protein, UniProt P08476 311-426, looked up)", "Inhibin beta A chain": "GLECDGKVNICCKKQFFVSFKDIGWNDWIIAPSGYHANYCEGECPSHIAGTSGSSLSFHSTVINHYRMRGHSPFANLKSCCVPTKLRPMSMLYYDDGQNIIKKDIQNMIVEECGCS"}}, "format_in_all_cases": "cell-based, mouse", "key": {"[1]": {"tested_on": "EBs", "assay": "Hematopoietic progenitor potential of activin-induced EBs", "settings": "day 7 activin-induced EBs, no serum", "protocol": "FIGS. 24A and 24B show the hematopoietic progenitor content of EBs differentiated in the presence of different concentrations of activin. A) Progenitor potential of day 7 EBs, Ep are primitive erythroid progenitors, mac/mix represent definitive hematopoietic progenitors. B) Progenitor potential of day 7 activin-induced EBs following 2.5 days of exposure to serum.\nFor the generation of blast cell colonies (BL-CFC assay), EB-derived cells were plated at 0.5×-1.5×10^5 cells/ml in 1% methylcellulose supplemented with 10% FCS (Hyclone), vascular endothelial growth factor (VEGF; 5 ng/ml), c-kit ligand (KL; 1% conditioned medium), IL-6 (5 ng/ml) and 25% D4T endothelial cell conditioned medium (Kennedy et al. (1997) Nature 386:488-93). Transitional colonies were generated in the absence of VEGF. Colonies were scored following four days of culture. […] Primitive erythroid colonies were scored at day 5-6 of culture, whereas definitive erythroid (BFU-E), macrophage, and multilineage colonies were counted at 7-10 days of culture. […]\nTo further evaluate the hematopoietic potential of these EBs, they were analyzed for progenitor potential."}, "[2]": {"tested_on": "EBs (HNF3β, Hex1 expression)", "assay": "Antibody staining for HNF3β and Hex1 in activin-induced EBs", "protocol": "To better estimate the proportion of endodermal progenitors in the activin-induced EBs, cells from cultures stimulated with 100 ng/ml activin were stained with antibodies against HNF3β and Hex1. EBs from un-induced cultures were used as controls (Activin-). A significant portion of the activin induced population (estimated at 50-60% of total) expressed both HNF3β and Hex1. None of the cells in the un-induced EBs expressed these proteins.\nTo quantify the differential response of activin, cells stimulated with different concentrations of activin were adhered to coverslips and stained with the anti-HNF3β antibody. More than 50% of the entire EB population stimulated with 100 ng/ml of activin expressed HNF3β whereas only 10% of the cells stimulated with 3 ng/ml were positive."}, "[3]": {"tested_on": "CD4-HNF/GFP-T ES cells", "assay": "Activin A / Wnt3a induction of ES derived primitive streak like cells in serum free culture, with pathway inhibitors", "settings": "serum free", "protocol": "FIGS. 34A, 34B and 34C depict ES cells differentiated in serum free conditions with Activin A Wnt3a and/or inhibitors of these pathways. ES cells were cultured in serum free media for two days then trypsinized to obtain a single cell population. These cells were then reaggregated with the indicated conditions. At day six, the EBs were plated on matrigel coated dishes in serum free media.\nLiu et. al. (1999) Nat. Genet. 22: 361-4. […] Activin stimulation leads to high levels of CD4 expression that persist after loss of GFP-Bry expression at day 6. […] Wnt does however stimulate expression of the posterior primitive streak markers HoxBI and Tbx6, while activin only induces Tbx6. […] At day 6, EBs that were stimulated with either activin or Wnt3a were plated on matrigel in serum free media to allow further development.\nConsidering that Wnt stimulation induces nodal and activin treatment induces Wnt3 (FIG. 34B), it is unknown whether activin/nodal signaling or Wnt Signaling alone can induce primitive streak formation or whether both factors are required together. CD4-HNF/GFP-T ES cells were induced with either activin or Wnt in conjunction with specific inhibitors of these pathways. DKK1 was used to inhibit Wnt signaling while the small molecule inhibitor SB-431542 (SB) was used to block Nodal/TGFβ signaling. DKK1 functions by binding the Wnt co-receptors, LRP5 and LRP6, which are essential for activation of the βcatenin signaling pathway. […] Inman et. al. (2002) MoI. Pharmacol. 62: 65-74. […] Therefore, to induce mesoderm and endoderm germ layers and their derivative tissues, both activin/Nodal and Wnt signals are required initially."}}, "data": [{"molecule": "B1", "values": [{"measurement": "primitive (Ep) or definitive (mac/mix) hematopoietic progenitors", "setting": "[1]", "value": "no appreciable numbers"}, {"measurement": "cells positive for HNF3β", "setting": "[2]; activin 3 ng/ml, anti-HNF3β antibody", "value": 10, "unit": "%"}, {"measurement": "entire EB population expressing HNF3β", "setting": "[2]; activin 100 ng/ml, anti-HNF3β antibody", "value": "More than 50%"}, {"measurement": "portion of population expressing both HNF3β and Hex1", "setting": "[2]; activin 100 ng/ml, antibody staining, estimated", "value": "50-60 % of total"}, {"measurement": "endodermal gene expression (Alb, Aat, HNF4, Pdxl) by RT-PCR", "setting": "[3]; day 6 EBs plated on matrigel a further 6 days", "value": "allowed development of cells expressing the endodermal genes Alb, Aat, HNF4, and Pdxl"}, {"measurement": "induction of GFP^+ CD4^+ cells", "setting": "[3]; Activin A 25 ng/ml or Wnt3a 100 ng/ml", "value": "initially induce GFP^+ CD4^+ cells"}]}]}
